The nature of the series: Pharmacokinetics (PK) of hGH variant-HSA conjugate, blood level by sandwich ELISA. Format: in vivo. The following applies: 7-week-old male ICR mice, 65 nmol/kg intravenous tail injection, blood 0.5-24 h. As for the experimental part: For pharmacokinetic evaluation of the hGH variant-HSA conjugate, 7-week-old male ICR mice (n=6) were used. 65 nmol/kg each of hGH variant-HSA (L52) and hGH variant-HSA (Q141) was intravenously injected into the tail, blood collection was performed at 0.5, 4, 8, 12, and 24 hours after injection, and centrifugation was performed at 2,500 rpm for 10 minutes, followed by storing at −20° C. As a comparative group, Norditropin (somatropin, Novo Nordisk) was administered at the same concentration, and then compared with the above sample.
The hGH variant-HSA conjugate in blood was analyzed by sandwich ELISA (human growth hormone (GH) DouSet ELISA, R&D Systems). An anti-hGH capture antibody was added to coat an immunoplate at 4° C. overnight, and a reaction was blocked with 1% BSA in PBS at 37° C. for 1 hour. The blood sample collected and was diluted on the washed plate and left for 2 hours, and then treated with an anti-hGH detection antibody at room temperature for 2 hours. After treating the detection antibody with streptavidin-HRP at room temperature for 1 hour, 100 μL of a substrate was treated for 5 minutes and then 2N H2SO4 was treated to stop the reaction. Afterward, a microplate reader (Hidexsense, Finland) was used to measure an optical density at 450 nm. […]
(In general: ELISA stands for enzyme-linked immunosorbent assay.)

As for “Norditropin: comparative group, Norditropin (somatropin, Novo Nordisk)”, the half-life (as a rule, the time in which the quantity being followed falls by half) came out at 30 min.

The record behind these values is US20230372503A1, “CONJUGATE OF FUNCTIONAL POLYPEPTIDE VARIANT, AND USE THEREOF” (PROABTECH INC., priority 2020, published 2023).
